Publication PMC9441902

Molecular target: LrsL (quorum quenching lactonase of Labrenzia sp. VG12), recombinant catalytic domain without the N-terminal 47 residues (Labrenzia sp. VG12)
Assay: SEC-MALS; Superdex 200 10/300; 5.5 mg/ml LrsL injected; 20 mM HEPES, pH 7.5, 200 mM NaCl, 1 mM TCEP, 0.01% NaN3

- stoichiometry N: 2
Substance: LrsL (quorum quenching lactonase of Labrenzia sp. VG12), recombinant catalytic domain without the N-terminal 47 residues (enzyme)
